Results as given in patent publication US20240010750A1 (Bayer, published 2024).

Tests used:
[1] = target: T1, human alpha2-Antiplasmin (human, UniProt P08697 40-491); assay: ELISA, coated antigen, 1st exp.
T1 construct: Bought (antibodies online, ABIN2544306); also called human A2AP; a2AP
T1 sequence: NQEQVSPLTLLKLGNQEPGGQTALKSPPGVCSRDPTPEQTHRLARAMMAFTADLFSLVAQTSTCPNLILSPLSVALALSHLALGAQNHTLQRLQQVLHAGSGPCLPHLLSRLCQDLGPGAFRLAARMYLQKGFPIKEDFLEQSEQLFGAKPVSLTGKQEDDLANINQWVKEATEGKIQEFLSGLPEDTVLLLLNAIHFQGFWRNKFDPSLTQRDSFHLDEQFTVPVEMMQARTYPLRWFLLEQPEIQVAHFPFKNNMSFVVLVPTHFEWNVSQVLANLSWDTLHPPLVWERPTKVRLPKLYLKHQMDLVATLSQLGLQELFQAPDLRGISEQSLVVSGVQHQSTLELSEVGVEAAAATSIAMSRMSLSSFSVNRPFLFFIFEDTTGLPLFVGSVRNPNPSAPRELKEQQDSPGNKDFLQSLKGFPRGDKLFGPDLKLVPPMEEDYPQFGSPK
Method in brief: (§1)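 Human alpha2-antiplasmin coated at 1 μg/ml overnight at 4° C, blocked, then incubated 1 h at room temperature with Fabs at different concentrations. Bound Fab detected with peroxidase anti-human lambda light chain antibody and Amplex red/H2O2, fluorescence Ex 535/Em 590 nm; dose-response in quadruplicate, independent experiments.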

[2] = target: T1, human alpha2-Antiplasmin; assay: cell-based or functional assay
[3] = target: human Plasmin (human, UniProt P00747 97-580; P00747 581-810, limits assumed); assay: cell-based or functional assay
Chain of human Plasmin (P00747 97-580 limits assumed, chain 1 of 2): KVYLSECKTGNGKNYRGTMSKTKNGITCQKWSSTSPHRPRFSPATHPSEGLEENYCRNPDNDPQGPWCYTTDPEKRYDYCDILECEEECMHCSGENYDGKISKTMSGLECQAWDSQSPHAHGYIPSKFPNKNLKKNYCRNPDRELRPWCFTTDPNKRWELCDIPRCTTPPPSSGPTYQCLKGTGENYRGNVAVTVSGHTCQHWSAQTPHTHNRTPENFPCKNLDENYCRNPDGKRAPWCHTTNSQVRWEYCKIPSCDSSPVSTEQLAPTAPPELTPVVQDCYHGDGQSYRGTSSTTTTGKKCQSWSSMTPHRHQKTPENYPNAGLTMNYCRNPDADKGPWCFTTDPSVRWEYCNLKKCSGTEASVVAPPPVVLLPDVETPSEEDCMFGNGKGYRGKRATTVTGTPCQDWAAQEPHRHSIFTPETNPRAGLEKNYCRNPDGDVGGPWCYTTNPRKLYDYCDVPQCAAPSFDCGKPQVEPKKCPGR
Chain of human Plasmin (P00747 581-810 limits assumed, chain 2 of 2): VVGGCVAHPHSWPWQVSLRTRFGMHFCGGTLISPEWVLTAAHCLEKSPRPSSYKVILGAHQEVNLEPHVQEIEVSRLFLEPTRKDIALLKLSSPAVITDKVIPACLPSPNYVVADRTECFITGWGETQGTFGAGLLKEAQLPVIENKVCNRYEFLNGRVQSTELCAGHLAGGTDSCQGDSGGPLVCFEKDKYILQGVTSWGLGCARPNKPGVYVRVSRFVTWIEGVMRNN

[4] = target: T1, human alpha2-Antiplasmin; assay: ELISA, coated antigen, 2nd exp.
Method in brief: as §1

[5] = target: T1, human alpha2-Antiplasmin; assay: ELISA, coated antigen, 3rd exp.; 3rd exp.
Protocol: A standard ELISA format was used for analyzing the binding affinity of Fabs of this invention to human and rabbit alpha-2-Antiplasmin, respectively. Antigens were coated to black 384 well Maxisorp microtiter plates (Nunc; catalogue number 460518), diluted to a concentration of 1 μg/ml in 1× Coating Buffer (Candor Bioscience; catalogue number 121125). Plates were incubated overnight at 4° C. After overnight incubation, plates were washed 2× with 50 μl/well using PBS+0.05% Tween 20. Following this, 50 μl/well of blocking buffer (Smart Block; Candor Bioscience; catalogue number 113500) was added and the plates were incubated for 1 hour at room temperature. Afterwards, plates were washed for 3× using […] PBS+0.05% Tween 20 buffer. Fabs of this invention were added at different concentrations in a final volume of 30 μl/well. Plates were incubated for 1 hour at room temperature. Following this incubation step, plates were washed for 3× using 50 μl/well of a PBS+0.05% Tween 20 buffer. For the detection of bound Fabs and full-length antibodies, the anti-Human Lambda Light Chains (Bound and Free)—Peroxidase antibody (Sigma; catalogue number A5175) was diluted by the factor of 1:10.000 in 10% Blocking Buffer. […]
For measurement, the Infinite f500 reader (Tecan) was used. Measurement mode: Fluorescence; Top reading; Ex 535 nm; Em 590 nm. […]

[6] = target: T1, human alpha2-Antiplasmin; assay: cell-based or functional assay; remark: listed apart in the source

B1: TPP-14303 hIgG1 (antibody, V domains shown)
VH: EVQLLESGGGLVQPGGSLRLSCAASGFTFDDYAMSWVRQAPGKGLEWVSAIGTGGGTYYADSVKGRFTISRDNSKNTLYLQMNSLRAEDTAVYYCAREDYDSSGYYHLDYWGQGTLVTVSS
VL: QSVLTQPPSASGTPGQRVTISCTGSSSNIGATYDVHWYQQLPGTAPKLLIYSNNQRPSGVPDRFSGSKSGTSASLAISGLRSEDEADYYCAAWDWSLSGWVFGGGTKLTVLG
[1]
  EC50: 24 nM
[2]
  EC50 (read off the curve); function blocking assay (Example 4), RFU of plasmin substrate cleavage: ~80 nM
[3]
  IC50 [M], inhibition of plasmin proteolytic activity: > 1e-05 M
[4]
  EC50: 29 nM
[5]
  EC50: 27 nM
[6]
  function blocking activity [IC50 M], 1st exp.: 85 nM
  function blocking activity [IC50 M], 2nd exp.: 89 nM
  function blocking activity [IC50 M], 3rd exp.: 94 nM
